Test results as given in article PMC12578645 (Nature Microbiology, 2025).

Assays:
gB-Ecto.H516P.L531E.DS = target: T1, gB-Ecto.H516P.L531E.DS (Human alphaherpesvirus 1, strain KOS, H516P | L531E | A240C | E607C); experiment: SPR; conditions: both partners purified
T1 construct: also called gB-Ecto.H516P.L531E.A240C+E607C (DS); gB-Ecto.516P.531E.DS; not shown: 8xHis-Tag, C-terminal, kept

gB-Ecto.H516P.L531E = target: T2, gB-Ecto.H516P.L531E (Human alphaherpesvirus 1, strain KOS, H516P | L531E); experiment: SPR; conditions: both partners purified
T2 construct: also called gB-Ecto.516P.531E; prefusion gB; not shown: 8xHis-Tag, C-terminal, kept

[1] = target: T3, HSV-1 gB on infectious HSV-1 virions (Human alphaherpesvirus 1 (HSV-1), …, UniProt P06437); experiment: ELISA; virion-binding ELISA: plates coated with purified authentic live HSV-1 at 50,000 infectious particles per well; monoclonal antibodies in fivefold dilutions from 20 µg/ml; conditions: one partner purified
T3 construct: also called authentic live virus; source: HSV-1 MacIntrye (VR-539; ATCC) propagated in Vero cells, virions purified by ultracentrifugation with a 25% sucrose cushion

cryo-EM structure = target: the molecule itself; experiment: cryo-EM structure

B1: WS.HSV-1.24 Fab (Fab, V domains shown)
VH: QVQLKESGPGLVAPSQSLSITCTVSGFSLTTYGVTWVRQPPGKGLEWLGVIWGDGSTNYHSDLISRLSITKDNSKSQVFLKLSSLQADDTATYYCVSYYGYFDHWGQGTTLTVSS
VL: DIQMTQSPSSLSASLGERVSLTCRASQDIGSSLNWLQQKPDGTIKRLIYATSSLDSGVPKRFSGSRSGSDYSLTISSLESEDFVDYYCLQYASSPPTFGGGTKLEIK
notes: also called WS.HSV-24; source: IgG expressed in Expi293F and purified; reduced and alkylated, digested with immobilized papain; Fab purified (protein G negative selection, Superdex 75 gel filtration)
For B1, which Kd (gB-Ecto.H516P.L531E.DS) is on record?
The Kd was 1.86 nM.

What about the Kd (gB-Ecto.H516P.L531E) of the same binder?
Its Kd is 3.2 nM.

B2: WS.HSV-1.24 IgG (antibody, V domains shown)
VH: B1 VH
VL: B1 VL
notes: also called WS.HSV-24; source: Expi293F, purified (variable genes cloned into pVRC8400 with species-specific constant regions)
Does B2 bind [1]?
Result: binds

B3: gB-Ecto.H516P.L531E (HSV-1 glycoprotein B ectodomain stabilized in the prefusion conformation) (domain or fragment)
chain: not shown
modifications: N-linked glycans (densities seen at 141, 398, 430 and 674)
notes: also called H516P + L531E ectodomain; prefusion gB
B3 was tested. Which “stoichiometry N” value (cryo-EM structure) did it give?
Its value is 3.
